Source: US6123948

Target: HPV-6 L2E7 fusion protein (encoded by plasmid pGW53: pelB leader, HPV-6 L2, HPV-6 E7, His Tag) (human papillomavirus type 6 (HPV-6), clinical isolate H26) (UniProt P06464)

Substance: draining (axillary) lymph node cells from B6CBA mice immunized with L2E7/Alum (cells without a defined receptor)
- incorporation of tritiated thymidine (in-vitro lymphoproliferative response) (stimulation index): 50
